Consider one sequence from patent publication US20220162684.

Like-named read-outs stand apart in the source and are kept apart here.

Data set [1] relates to HHH peptide (biotinylated histidine trimer) (synthetic). To be noted: quantum dot multivalent probe.
For data set [2] the test system is unchanged.

For orientation: EC50 means the concentration at which the effect is half-maximal. Lower therefore signals higher potency in that assay. In the case of “CAAGCAGAAGACGGCATACGAGATCATGCTTCCCCAGGGAGATGGTTTGCCGGTGGGCAGGTTTAGGGTCTGCTCGGGATTGCGGAGGAACATGCGTCGCAAACGTGTAGATCTCGGTGGTCGCCGTATCATT [P7-B1-P5 aptamer]”, the EC50 in data set [1] turned out to be 60 nM; in data set [2] (single aptamer on SureLight APC), 2.3 nM; in data set [2] (single aptamer on streptavidin-APC), 29.9 nM; in data set [2] (single aptamer on streptavidin-Alexa Fluor 647) it was 28 nM.
